{"source": "the DeepSol protein solubility set", "data": [{"assay": "soluble on expression in E. coli; label from the status in PepcDB or PDB records", "values": [{"sequence": "MLSEEDVHTNSYAGRTVAVMEQPDLFSDDCDEINLGNEDTPPSKLRLHTTEEPKESSSPAVINSIEDHDQYVGNDNHYAQISPEPALSNFKVTMREFEKRGDGMNAYIVYKLETEVSGVVGYTKQHYETWRRFSDFLGLHGKIVEKYLAKGIVIPQPPEKSISALTKTKTNSDPAMSREVGIQRARQLERYICRLIQHPRMRNDCDVRDFLTIESDLPKAVQTAALSSFGVKKIFKNFQVVFSKMAFHMEEGDRWFEQVQSQVDELDEALRKLYTVTETLVASRRDMATSGEQLGKALSMLAACEESTSLSRALSSLTDVTENVSAVYGKQAEVDNSKFSESIYEYIMLISALKDVFGERVRAWQQWQDAQQTLARKRDQKTKIDLSAGGRNERSDQLKGEIEDTVQKMDQLEQHFIELSKAIREEVARFDADRKQDMKKMLVEYMESMIHTHTELLHLWEKFEPEANNIRV", "soluble on expression in E. coli": "not soluble"}, {"sequence": "STMSGYLYRSKGSKKPWKHLWFVIKNKVLYTYAASEDVAALESQPLLGFTVTLVKDENSESKVFQLLHKGMVFYVFKADDAHSTQRWIDAFQEGTV", "soluble on expression in E. coli": "soluble"}, {"sequence": "MAHHHHHHMAYVFDKITKTVTIYMGNTKSKIVLGGLWQRGMKGYIIYDVARQGTPPDTNFAPTTGWSMILVSSPNVRNYDGWATQVKASRIIMNCPDEMDVKAMCAWMKRGLDTDKQAGYWKMVEKHMEKVGPIPRHIFDADEYGERTWDATSALRWINIGEQRKYFTKGGEQWYSEDLSHKLLKIVRVREDGAFEDLSNAPICDYLGVLTVSRLAKALSPNDILFLVLGMKNVVQSAALKKYGLNVFLSVEFVTSIVTDLKELQPPSPSEPRSSVLTLNPHGYPTEAAAITELKFIDRPQELKYRVLYIPTFPTFPLVDGFFFVDSPRKTLVGLQMTTASAHHTTASTVRQFTECMAAYFDDWDEFSRDMSWDMIYIQHAASKPMKKRQKCLYVDSNNKTDAEKKIVAFWNGKVHQYQFVLTTDF", "soluble on expression in E. coli": "not soluble"}, {"sequence": "MESPSALPSLDQLLKEQGADQTLTDLILAILDRCGKIASALQGTSVDKVGSVNEFGDEQLTVDVIAENLLRSWAQSSEGSAVRAVCSEEDIHLQECHKNGEFILCWDPLDGSSIIDCNWAVGSIVSIWRIGHHGVQWQGADTLIQKTGRQQVASLIVVYGPRTTGVVAVNVDAGGIVKEGTALDLEMKDNGKFICRGKPIIKPQAKIFSPANLRAAQDLPAYKQLIEFWMEKRYTLRYTGGLVPDVYQIFVKQQGVFCNPASKAAPAKLRMCFEVLAIALVVEAAGGRTSNGQKSLLDVAIEHMDHRSALCCGSADEIKRMEETFAALSG", "soluble on expression in E. coli": "soluble"}, {"sequence": "MACPEATFFHRAGWKQVIEQAFGHKTWFLYIEEGGCIQGVLPLAEIDSLLFGHSLSALPFCVYGGIAAISDDARIRLDQAAQMLATYLKVDYLEYRHLHPFHHDWPTKDLYVTFRKTMDSDVEQNMLAIPRKQRAMVRKGMKYELQSYLDQDTDHFFRAYSASVHRLGTPVFSRKYFRLLKSVFAEDCELLIITKDENVVSAVMSFYFRDEVLPYYGGGTDAARDLAGNDFMYWELMRRACERGYRVFDFGRSKRGTGSYSFKKNWGFEPQPLFYEYQLHQAKTIPEHNPLNPKYQLFIKAWQKMPLALANMLGPHIVKNLG", "soluble on expression in E. coli": "not soluble"}, {"sequence": "MSLLTVVHDQDSSNEDACGSRSLLDEIVRDGARQMLAAALAAEVAAYIDAHAGEVDENGHRLVVRNGYHREREVLTAAGAVTVIAPRVNDKRIDADTAERRRFSSAILPAWARKSPQMTEVLPLLYLHGLSTSDFGPALEQFLGSGAGLSATTITRLTAQWQDEAKAFGERDLSGTDYVYLWVDGIHLKVRLEQEKLCLLVMIGVRSDGRKELVGLADGYRESTESWADLLRSCRRRGMTAPVLAVGDGALGFWKAMREVFPATREQRCWFHKQANVLSCLPKSAHPGALAAMREIYNAEDIDHAQVAIKAFEVDYGAKYPKAVAKIVDDADVLLEFYRYPAEHWIHLRTTNPIESTFATVRLRTKVTKGPGSRAAGIAMAYKLIDAAQARWRAVNAPHLVALVRAGAVFHKGKLLEREGHHHHHH", "soluble on expression in E. coli": "not soluble"}, {"sequence": "MAHHHHHHMNVALIFGITGQDGSYLSELLLEKGYTVHGVIRRCSSFNTKRIDHIFDQLNLHYGDVLDSSSICKLISKIKPHEIYNLAAQSHVKVSFELPVYTAETTAVGTLRILEAIKISNLPDVKFYNASTSELFGSSTDDRQHESTPFNPVSPYAIAKLYSHYITICYRKSYQMFCVNGILFNHESPRRGETFVTRKITRGVANICKNRQNCLVLGDLSTYRDWGHAKDYVRAMYLMLQQDEPDDFVISSNEKHTVKEFCEISFSFVGIFLKWKGTGIQEVGVDQHDRVLIKKDPRYYRECDVFHLHGDSSKARQKLQWAPTYSFFQLIYEMLTYDFEQCSLPIDDFDTCVSRYENYRGVPTK", "soluble on expression in E. coli": "not soluble"}]}]}
